Target: CD11b/CD18 receptor on J774A.1 murine monocytes/macrophages (murine) (UniProt P05555)
Experiment: cell-based or functional assay

CyaA/233OVA/K860R/AC- (from UniProt J7QLC0 1-1706)
Lysis of J774A.1 cells (% of AC-): 72 % of AC-

From patent publication EP2411513B1
